B1: LIN28 (protein, UniProt Q9H9Z2 2-209, looked up)
Protein lin-28 homolog A: GSVSNQQFAGGCAKAAEEAPEEAPEDAARAADEPQLLHGAGICKWFNVRMGFGFLSMTARAGVALDPPVDVFVHQSKLHMEGFRSLKEGEAVEFTFKKSAKGLESIRVTGPGGVFCIGSERRPKGKSMQKRRSKGDRCYNCGGLDHHAKECKLPPQPKKCHFCQSISHMVASCPLKAQQGPSAQGKPTYFREEEEEIHSPTLLPEAQN
B2: ASCL2 (protein, UniProt Q99929 1-193, looked up)
Achaete-scute homolog 2: MDGGTLPRSAPPAPPVPVGCAARRRPASPELLRCSRRRRPATAETGGGAAAVARRNERERNRVKLVNLGFQALRQHVPHGGASKKLSKVETLRSAVEYIRALQRLLAEHDAVRNALAGGLRPQAVRPSAPRGPPGTTPVAASPSRASSSPGRGGSSEPGSPRSAYSSDDSGCEGALSPAERELLDFSSWLGGY
B3: MAD3 (protein, UniProt Q9BW11 1-206, looked up)
Max dimerization protein 3: MEPLASNIQVLLQAAEFLERREREAEHGYASLCPHRSPGPIHRRKKRPPQAPGAQDSGRSVHNELEKRRRAQLKRCLERLKQQMPLGADCARYTTLSLLRRARMHIQKLEDQEQRARQLKERLRSKQQSLQRQLEQLRGLAGAAERERLRADSLDSSGLSSERSDSDQEELEVDVESLVFGGEAELLRGFVAGQEHSYSHGGGAWL
B4: LASS3 (protein, UniProt Q8IU89 1-383, looked up)
Ceramide synthase 3: MFWTFKEWFWLERFWLPPTIKWSDLEDHDGLVFVKPSHLYVTIPYAFLLLIIRRVFEKFVASPLAKSFGIKETVRKVTPNTVLENFFKHSTRQPLQTDIYGLAKKCNLTERQVERWFRSRRNQERPSRLKKFQEACWRFAFYLMITVAGIAFLYDKPWLYDLWEVWNGYPKQPLLPSQYWYYILEMSFYWSLLFRLGFDVKRKDFLAHIIHHLAAISLMSFSWCANYIRSGTLVMIVHDVADIWLESAKMFSYAGWTQTCNTLFFIFSTIFFISRLIVFPFWILYCTLILPMYHLEPFFSYIFLNLQLMILQVLHLYWGYYILKMLNRCIFMKSIQDVRSDDEDYEEEEEEEEEEATKGKEMDCLKNGLRAERHLIPNGQHGH
B5: LBX2 (protein, UniProt Q9WUN8 1-195, looked up)
Transcription factor LBX2: MNSVHQRRTPFSIADILGPSMVPEAPSAPQLPEAGPDPASPLCALEELASKTFLGHSPRATPQPSEGRAAPEAPPGPGAGVRRRRKSRTAFTAQQVLELERRFVFQKYLAPSERDGLAARLGLANAQVVTWFQNRRAKLKRDVEEMRADVASLCGLSPGVLCYPALPDSTSSPDPGPSGPDSEPNLSDEEIQVDD
B6: LEF1 (protein, UniProt Q9UJU2 1-399, looked up)
Lymphoid enhancer-binding …: MPQLSGGGGGGGGDPELCATDEMIPFKDEGDPQKEKIFAEISHPEEEGDLADIKSSLVNESEIIPASNGHEVARQAQTSQEPYHDKAREHPDDGKHPDGGLYNKGPSYSSYSGYIMMPNMNNDPYMSNGSLSPPIPRTSNKVPVVQPSHAVHPLTPLITYSDEHFSPGSHPSHIPSDVNSKQGMSRHPPAPDIPTFYPLSPGGVGQITPPLGWQGQPVYPITGGFRQPYPSSLSVDTSMSRFSHHMIPGPPGPHTTGIPHPAIVTPQVKQEHPHTDSDLMHVKPQHEQRKEQEPKRPHIKKPLNAFMLYMKEMRANVVAECTLKESAAINQILGRRWHALSREEQAKYYELARKERQLHMQLYPGWSARDNYGKKKKRKREKLQESASGTGPRMTAAYI
B7: LASS6 (protein, UniProt Q6ZMG9 1-384, looked up)
Ceramide synthase 6: MAGILAWFWNERFWLPHNVTWADLKNTEEATFPQAEDLYLAFPLAFCIFMVRLIFERFVAKPCAIALNIQANGPQIAPPNAILEKVFTAITKHPDEKRLEGLSKQLDWDVRSIQRWFRQRRNQEKPSTLTRFCESMWRFSFYLYVFTYGVRFLKKTPWLWNTRHCWYNYPYQPLTTDLHYYYILELSFYWSLMFSQFTDIKRKDFGIMFLHHLVSIFLITFSYVNNMARVGTLVLCLHDSADALLEAAKMANYAKFQKMCDLLFVMFAVVFITTRLGIFPLWVLNTTLFESWEIVGPYPSWWVFNLLLLLVQGLNCFWSYLIVKIACKAVSRGKVSKDDRSDIESSSDEEDSEPPGKNPHTATTTNGTSGTNGYLLTGSCSMDD
B8: LHX3 (protein, UniProt Q9UBR4 1-397, looked up)
LIM/homeobox protein Lhx3: MLLETGLERDRARPGAAAVCTLGGTREIPLCAGCDQHILDRFILKALDRHWHSKCLKCSDCHTPLAERCFSRGESVYCKDDFFKRFGTKCAACQLGIPPTQVVRRAQDFVYHLHCFACVVCKRQLATGDEFYLMEDSRLVCKADYETAKQREAEATAKRPRTTITAKQLETLKSAYNTSPKPARHVREQLSSETGLDMRVVQVWFQNRRAKEKRLKKDAGRQRWGQYFRNMKRSRGGSKSDKDSVQEGQDSDAEVSFPDEPSLAEMGPANGLYGSLGEPTQALGRPSGALGNFSLEHGGLAGPEQYRELRPGSPYGVPPSPAAPQSLPGPQPLLSSLVYPDTSLGLVPSGAPGGPPPMRVLAGNGPSSDLSTGSSGGYPDFPASPASWLDEVDHAQF
B9: LHX2 (protein, UniProt P50458 1-406, looked up)
LIM/homeobox protein Lhx2: MLFHSLSGPEVHGVIDEMDRRAKSEAPAISSAIDRGDTETTMPSISSDRAALCAGCGGKISDRYYLLAVDKQWHMRCLKCCECKLNLESELTCFSKDGSIYCKEDYYRRFSVQRCARCHLGISASEMVMRARDLVYHLNCFTCTTCNKMLTTGDHFGMKDSLVYCRLHFEALLQGEYPAHFNHADVAAAAAAAAAAKSAGLGAAGANPLGLPYYNGVGTVQKGRPRKRKSPGPGADLAAYNAALSCNENDAEHLDRDQPYPSSQKTKRMRTSFKHHQLRTMKSYFAINHNPDAKDLKQLAQKTGLTKRVLQVWFQNARAKFRRNLLRQENTGVDKSTDAALQTGTPSGPASELSNASLSPSSTPTTLTDLTSPTLPTVTSVLTSVPGNLEGHEPHSPSQTTLTNLF
B10: LASS4 (protein, UniProt Q9HA82 1-394, looked up)
Ceramide synthase 4: MLSSFNEWFWQDRFWLPPNVTWTELEDRDGRVYPHPQDLLAALPLALVLLAMRLAFERFIGLPLSRWLGVRDQTRRQVKPNATLEKHFLTEGHRPKEPQLSLLAAQCGLTLQQTQRWFRRRRNQDRPQLTKKFCEASWRFLFYLSSFVGGLSVLYHESWLWAPVMCWDRYPNQTLKPSLYWWYLLELGFYLSLLIRLPFDVKRKDFKEQVIHHFVAVILMTFSYSANLLRIGSLVLLLHDSSDYLLEACKMVNYMQYQQVCDALFLIFSFVFFYTRLVLFPTQILYTTYYESISNRGPFFGYYFFNGLLMLLQLLHVFWSCLILRMLYSFMKKGQMEKDIRSDVEESDSSEEAAAAQEPLQLKNGAAGGPRPAPTDGPRSRVAGRLTNRHTTAT
B11: LMCD1 (protein, UniProt Q9NZU5 1-365, looked up)
LIM and cysteine-rich domains …: MAKVAKDLNPGVKKMSLGQLQSARGVACLGCKGTCSGFEPHSWRKICKSCKCSQEDHCLTSDLEDDRKIGRLLMDSKYSTLTARVKGGDGIRIYKRNRMIMTNPIATGKDPTFDTITYEWAPPGVTQKLGLQYMELIPKEKQPVTGTEGAFYRRRQLMHQLPIYDQDPSRCRGLLENELKLMEEFVKQYKSEALGVGEVALPGQGGLPKEEGKQQEKPEGAETTAATTNGSLSDPSKEVEYVCELCKGAAPPDSPVVYSDRAGYNKQWHPTCFVCAKCSEPLVDLIYFWKDGAPWCGRHYCESLRPRCSGCDEIIFAEDYQRVEDLAWHRKHFVCEGCEQLLSGRAYIVTKGQLLCPTCSKSKRS
B12: MAD (protein, UniProt Q05195 1-221, looked up)
Max dimerization protein 1: MAAAVRMNIQMLLEAADYLERREREAEHGYASMLPYNNKDRDALKRRNKSKKNNSSSRSTHNEMEKNRRAHLRLCLEKLKGLVPLGPESSRHTTLSLLTKAKLHIKKLEDCDRKAVHQIDQLQREQRHLKRQLEKLGIERIRMDSIGSTVSSERSDSDREEIDVDVESTDYLTGDLDWSSSSVSDSDERGSMQSLGSDEGYSSTSIKRIKLQDSHKACLGL
B13: LMX1B (protein, UniProt O60663 1-402, looked up)
LIM homeobox transcription …: MDIATGPESLERCFPRGQTDCAKMLDGIKMEEHALRPGPATLGVLLGSDCPHPAVCEGCQRPISDRFLMRVNESSWHEECLQCAACQQALTTSCYFRDRKLYCKQDYQQLFAAKCSGCMEKIAPTEFVMRALECVYHLGCFCCCVCERQLRKGDEFVLKEGQLLCKGDYEKEKDLLSSVSPDESDSVKSEDEDGDMKPAKGQGSQSKGSGDDGKDPRRPKRPRTILTTQQRRAFKASFEVSSKPCRKVRETLAAETGLSVRVVQVWFQNQRAKMKKLARRHQQQQEQQNSQRLGQEVLSSRMEGMMASYTPLAPPQQQIVAMEQSPYGSSDPFQQGLTPPQMPGDHMNPYGNDSIFHDIDSDTSLTSLSDCFLGSSDVGSLQARVGNPIDRLYSMQSSYFAS
B14: LIN28B (protein, UniProt Q6ZN17 1-250, looked up)
Protein lin-28 homolog B: MAEGGASKGGGEEPGKLPEPAEEESQVLRGTGHCKWFNVRMGFGFISMINREGSPLDIPVDVFVHQSKLFMEGFRSLKEGEPVEFTFKKSSKGLESIRVTGPGGSPCLGSERRPKGKTLQKRKPKGDRCYNCGGLDHHAKECSLPPQPKKCHYCQSIMHMVANCPHKNVAQPPASSQGRQEAESQPCTSTLPREVGGGHGCTSPPFPQEARAEISERSGRSPQEASSTKSSIAPEEQSKKGPSVQKRKKT
B15: LITAF (protein, UniProt Q99732 1-161, looked up)
Lipopolysaccharide-induced …: MSVPGPYQAATGPSSAPSAPPSYEETVAVNSYYPTPPAPMPGPTTGLVTGPDGKGMNPPSYYTQPAPIPNNNPITVQTVYVQHPITFLDRPIQMCCPSCNKMIVSQLSYNAGALTWLSCGSLCLLGCIAGCCFIPFCVDALQDVDHYCPNCRALLGTYKRL
B16: LMO1 (protein, UniProt P25800 1-156, looked up)
Rhombotin-1: MMVLDKEDGVPMLSVQPKGKQKGCAGCNRKIKDRYLLKALDKYWHEDCLKCACCDCRLGEVGSTLYTKANLILCRRDYLRLFGTTGNCAACSKLIPAFEMVMRARDNVYHLDCFACQLCNQRFCVGDKFFLKNNMILCQMDYEEGQLNGTFESQVQ

These molecules were tested on HEK293FT cells transfected with TF library (assay: Screening of TF condensates based on fluorescent puncta). Conditions: Figure 1B numerical data; TF library screen, one value per transcriptional factor.
Format: cell-based
Method in brief: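 Condensate formation is scored as Alexa 488-labelled puncta after Flag- or GAL4-tag immunostaining of fixed HEK293FT cells expressing individual TFs, with a 12 h glucose-free or glucose-containing culture preceding fixation.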

In order of rising “Z score of condensed fraction” value:
1. B4  -1.783
2. B3  -1.116
3. B14  -0.9223
4. B5  -0.9162
5. B7  -0.6196
6. B10  -0.3767
7. B8  -0.2379
8. B1  -0.1683
9. B15  0.004705
10. B13  0.1118
11. B6  0.2503
12. B12  0.4682
13. B9  0.8007
14. B2  0.864
15. B16  0.976
16. B11  2.397
